{"source": "patent US7358338B2", "about": "“Heme peptide” (Nihon University, priority 2002, dated 2008)", "molecules": {"B1": {"name": "Red alga Porphyra yezonesis cytochrome c6: cytochrome c6 purified from red alga Porphyra yezonesis, SEQ ID NO: 2; comparison protein (protein, listed as Porphyra yezoensis)", "chain": "ADLDNGEKVFSANCAACHAGGNNAIMPDKTLKKDVLEANSMNTIDAITYQVQNGKNAMPAFGGRLVDEDIEDAANYVLSQSEKGW"}}, "key": {"[1]": {"assay": "Measurement of NO-scavenging ability (nitrite/dithionite/methyl viologen reaction, remaining nitrite by diazotization method)", "format": "biochemical", "settings": "reaction turnover number from Lineweaver-Burk plot; 2, 4, 6, 8 and 10 mM sodium nitrite; pH 7.0; 37° C.", "procedure": "To a 10 ml vial, 0.3 ml of 100 mM phosphate buffer (pH 7.0), 0.4 ml of 10 mM sodium nitrite, 0.5 ml of a solution of each of the above-described peptides, and 0.4 ml of 3 mM methyl viologen (Tokyo Kasei Kogyo) were added. Then, the vial was tightly sealed with a butyl rubber stopper and an aluminum seal. This vial was kept at 37° C. for 5 min while feeding argon gas thereinto. Then, 0.3 ml of 100 mM sodium dithionite (dissolved in 50 mM sodium hydrogencarbonate) was added thereto to start the reaction. A 0.2 ml sample was taken from the reaction solution at regular intervals and air-oxidized in a vortex mixer to thereby terminate the reaction.\nThe amount of the remaining nitrite was determined by the diazotization method. 0.02 ml of the reaction solution was taken, and 1.98 ml of ultrapure water was added thereto. Then, 1 ml of 1% sulfanilamide, 1 ml of 0.02% N-1-naphthyl ethylenediamine chloride and 1 ml of ultrapure water were added thereto. The resultant solution was left at room temperature for 20 min. Then, absorption of the produced azo dye was measured at 540 nm, followed by calculation of the amount of the remaining nitrite from a working curve prepared from a nitrous acid solution of a known concentration.\nThe measurement of absorption was performed with Shimadzu UV-1600 UV-Visible Spectrophotometer.\nAnalysis based on reaction kinetics was performed by determining specific activities against 2, 4, 6, 8 and 10 mM sodium nitrite and then calculating the reaction turnover number kcat(s^−1) using a Lineweaver-Burk plot."}, "[2]": {"assay": "Isoelectric point by isoelectric focusing (Ampholine PAGplate gel, pH 3.5-9.5)", "format": "physicochemical", "procedure": "(§1) In the following Examples, reagents manufactured by Wako Purechemical Industries were used unless otherwise noted. Isoelectric point was analyzed by isoelectric focusing using Ampholine PAGplate gel (Pharmacia; for IEF; pH 3.5-9.5). Absorption maximum was determined with Hitachi U-3310 Spectrophotometer (Hitachi). Oxidation-reduction potential was determined with Hitachi U-3310 Spectrophotometer (Hitachi) and ORP electrode (Metrohm)."}, "[3]": {"assay": "Oxidation-reduction potential (spectrophotometer and ORP electrode)", "format": "physicochemical", "procedure": "as §1"}}, "data": [{"molecule": "Horse cardiac muscle cytochrome c: horse cardiac muscle cytochrome c (Wako Purechemical Industries), SEQ ID NO: 1; comparison protein [reference compound]", "values": [{"measurement": "Rate Constant kcat", "setting": "[1]", "result": 0.01521, "unit": "s⁻¹"}]}, {"molecule": "mp9: heme peptide, SEQ ID NO: 4, heme bound to Cys 1 and 4; trypsin digest of horse cardiac muscle cytochrome c (CAQCHTVEK; heme bound to Cys1 and Cys4; listed as Equus caballus)", "values": [{"measurement": "Isoelectric point", "setting": "[2]", "result": 4.95}, {"measurement": "Oxidation-reduction potential", "setting": "[3]", "result": "−132", "unit": "mV"}, {"measurement": "Rate Constant kcat", "setting": "[1]", "result": 1.66, "unit": "s⁻¹"}]}, {"molecule": "mp15: heme peptide, SEQ ID NO: 3, heme bound to Cys 5 and 8; thermolysin digest of Porphyra yezonesis cytochrome c6 (FSANCAACHAGGNNA; heme bound to Cys5 and Cys8; listed as Porphyra yezoensis)", "values": [{"measurement": "Isoelectric point", "setting": "[2]", "result": 4.15}, {"measurement": "Oxidation-reduction potential", "setting": "[3]", "result": "−82.2", "unit": "mV"}, {"measurement": "Rate Constant kcat", "setting": "[1]", "result": 2.54, "unit": "s⁻¹"}]}, {"molecule": "mp22: heme peptide, SEQ ID NO: 5, heme bound to Cys 4 and 7; chymotrypsin digest of horse cardiac muscle cytochrome c (VQKCAQCHTVEKGGKHKTGPNL; heme bound to Cys4 and Cys7; listed as Equus caballus)", "values": [{"measurement": "Isoelectric point", "setting": "[2]", "result": 6.02}, {"measurement": "Oxidation-reduction potential", "setting": "[3]", "result": "−66.5", "unit": "mV"}, {"measurement": "Rate Constant kcat", "setting": "[1]", "result": 0.80, "unit": "s⁻¹"}]}, {"molecule": "mp65: heme peptide, SEQ ID NO: 6, heme bound to Cys 14 and 17; cyanogen bromide cleavage of horse cardiac muscle cytochrome c", "values": [{"measurement": "Isoelectric point", "setting": "[2]", "result": 9.52}, {"measurement": "Oxidation-reduction potential", "setting": "[3]", "result": "−62.1", "unit": "mV"}, {"measurement": "Rate Constant kcat", "setting": "[1]", "result": 0.12, "unit": "s⁻¹"}]}, {"molecule": "B1", "values": [{"measurement": "Rate Constant kcat", "setting": "[1]", "result": 0.05, "unit": "s⁻¹"}]}]}
